Source: patent US20190359687A1 (Bayer, published 2019)
Numbering of substitutions follows the chain as printed. In names and notes the source's numbering stands.

B1: TPP-5698, Hu6C12-24 Fab variant VL: (S24R, A26S) (Fab, V domains shown)
VH: EVQLVQSGAEVKKPGASVKVSCKASGYTFTTYTIHWVRQAPGQGLEWIGYINPSSDYTRYNPKFKDRVTLTTDKSTSTAYMELRSLRSDDTAVYYCQTGTRDYWGQGTTVTVSS
VL: DIQLTQSPSFLSASVGDRVTITCRASSSVSYIYWFQQKPGKAPKLLIYSTSTLPSGVPSRFSGSGSGTEYTLTISSLQPEDFATYYCHQRNSFPFTFGQGTKLEIKR
notes: Built on the parental Fab TPP-4935
B2: TPP-5695, Hu6C12-24 Fab variant VH: (L70M, T72R) (Fab, V domains shown)
VH: B1 VH with L70M, T72R
VL: B1 VL with R24S, S26A
notes: as for B1
B3: TPP-5836, Hu6C12-24 Fab variant VL: (S24R, A26S, S49A, P54Q, F95Y); VH: (I48M, L70M, T72R) (Fab, V domains shown)
VH: B1 VH with I48M, L70M, T72R
VL: B1 VL with S49A, P54Q, F95Y
notes: as for B1
B4: TPP-5704, Hu6C12-24 Fab variant VL: (N91D) (Fab, V domains shown)
VH: B1 VH
VL: B1 VL with R24S, S26A, N91D
notes: as for B1
B5: TPP-5838, Hu6C12-24 Fab variant VL: (S24R, A26S, S49A, P54Q, F95Y); VH: (I48M, D66G, L70M) (Fab, V domains shown)
VH: B1 VH with I48M, D66G, L70M
VL: B1 VL with S49A, P54Q, F95Y
notes: as for B1
B6: TPP-5701, Hu6C12-24 Fab variant VL: (S49A, P54Q, F95Y) (Fab, V domains shown)
VH: B1 VH
VL: B1 VL with R24S, S26A, S49A, P54Q, F95Y
notes: as for B1
B7: TPP-5356, Hu6C12-24 Fab variant VL: (F35Y, Y70F) (Fab, V domains shown)
VH: B1 VH
VL: B1 VL with R24S, S26A, F35Y, Y70F
notes: as for B1
B8: TPP-5842, Hu6C12-24 Fab variant VL: (S24R, A26S, S49A, P54Q, F95Y); VH: (D66G, L70M, T72R) (Fab, V domains shown)
VH: B1 VH with D66G, L70M, T72R
VL: B1 VL with S49A, P54Q, F95Y
notes: as for B1
B9: TPP-5675, Hu6C12-24 Fab variant VH: (I48M, L70M, T72R) (Fab, V domains shown)
VH: B1 VH with I48M, L70M, T72R
VL: B1 VL with R24S, S26A
notes: as for B1
B10: TPP-5700, Hu6C12-24 Fab variant VL: (S24R, A26S, F95Y) (Fab, V domains shown)
VH: B1 VH
VL: B1 VL with F95Y
notes: as for B1
B11: TPP-5338, Hu6C12-24 Fab variant VH: (E1Q, I48M, L70M, T72R, K74T, R84S, D89E) (Fab, V domains shown)
VH: B1 VH with E1Q, I48M, L70M, T72R, K74T, R84S, D89E
VL: B1 VL with R24S, S26A
notes: as for B1
B12: TPP-5677, Hu6C12-24 Fab variant VH: (I48M, D66G, L70M) (Fab, V domains shown)
VH: B1 VH with I48M, D66G, L70M
VL: B1 VL with R24S, S26A
notes: as for B1

target: T1, human glycophorin A on human red blood cells or red blood cell membranes (human, UniProt P02724 20-150); experiment: ELISA, Fab on coated human RBC membranes
T1 construct: whole, on cells; also called hRBC; human RBC membranes
T1 sequence (looked up): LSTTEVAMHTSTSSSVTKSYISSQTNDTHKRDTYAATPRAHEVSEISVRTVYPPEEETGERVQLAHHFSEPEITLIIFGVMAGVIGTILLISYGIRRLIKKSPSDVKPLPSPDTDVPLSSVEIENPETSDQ

How did the “binding in ELISA relative to parental Fab” value turn out when B1 was run?
The value was 0.6 relative to parental Fab.

Which “binding in ELISA relative to parental Fab” value does the source give for B2 here?
Its value is 0.9 relative to parental Fab.

B3 was tested. Which “binding in ELISA relative to parental Fab” value did it give?
Its value is 4.7 relative to parental Fab.

B4 was tested. Which “binding in ELISA relative to parental Fab” value did it give?
Its value is 0.9 relative to parental Fab.

With B5 as the binder, how does the “binding in ELISA relative to parental Fab” value read?
Its value is 9.3 relative to parental Fab.

How did the “binding in ELISA relative to parental Fab” value turn out when B6 was run?
The value was 4.7 relative to parental Fab.

With B7 as the binder, how does the “binding in ELISA relative to parental Fab” value read?
Its value is 0.7 relative to parental Fab.

With B8 as the binder, how does the “binding in ELISA relative to parental Fab” value read?
The value was 7 relative to parental Fab.

For B9, which “binding in ELISA relative to parental Fab” value is on record?
The value was 0.7 relative to parental Fab.

With B10 as the binder, how does the “binding in ELISA relative to parental Fab” value read?
The value was 2.5 relative to parental Fab.

How did the “binding in ELISA relative to parental Fab” value turn out when B11 was run?
Its value is 0.5 relative to parental Fab.

For B12, which “binding in ELISA relative to parental Fab” value is on record?
Its value is 0.8 relative to parental Fab.

target: T2, Cynomolgus monkey recombinant glycophorin A ectodomain (Cynomolgus monkey); experiment: ELISA, Fab on coated recombinant cyno GPA ectodomain
T2 construct: extracellular domain

B1 was tested. Which “binding in ELISA relative to parental Fab” value did it give?
Its value is 1 relative to parental Fab.

B2 was tested. Which “binding in ELISA relative to parental Fab” value did it give?
The value was 1.1 relative to parental Fab.

Which “binding in ELISA relative to parental Fab” value does the source give for B3 here?
Its value is 1 relative to parental Fab.

With B4 as the binder, how does the “binding in ELISA relative to parental Fab” value read?
Its value is 1 relative to parental Fab.

How did the “binding in ELISA relative to parental Fab” value turn out when B5 was run?
Its value is 1.1 relative to parental Fab.

For B6, which “binding in ELISA relative to parental Fab” value is on record?
The value was 1 relative to parental Fab.

How did the “binding in ELISA relative to parental Fab” value turn out when B8 was run?
Its value is 1.1 relative to parental Fab.

B9 was tested. Which “binding in ELISA relative to parental Fab” value did it give?
Its value is 1 relative to parental Fab.

With B10 as the binder, how does the “binding in ELISA relative to parental Fab” value read?
The value was 1.2 relative to parental Fab.

With B12 as the binder, how does the “binding in ELISA relative to parental Fab” value read?
Its value is 1.2 relative to parental Fab.

target: T3, recombinant human glycophorin A ectodomain protein (human, UniProt P02724 20-91); experiment: ELISA, Fab on coated recombinant human GPA ectodomain
T3 construct: 72 amino acids of the extracellular region; also called Hu-rec GPA
T3 sequence: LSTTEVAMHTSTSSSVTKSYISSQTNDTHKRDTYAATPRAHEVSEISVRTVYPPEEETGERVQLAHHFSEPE

Which “binding in ELISA relative to parental Fab” value does the source give for B1 here?
Its value is 1.7 relative to parental Fab.

With B2 as the binder, how does the “binding in ELISA relative to parental Fab” value read?
Its value is 1 relative to parental Fab.

With B3 as the binder, how does the “binding in ELISA relative to parental Fab” value read?
Its value is 4.1 relative to parental Fab.

For B4, which “binding in ELISA relative to parental Fab” value is on record?
Its value is 1.1 relative to parental Fab.

Which “binding in ELISA relative to parental Fab” value does the source give for B5 here?
Its value is 4.7 relative to parental Fab.

For B6, which “binding in ELISA relative to parental Fab” value is on record?
The value was 3.9 relative to parental Fab.

Which “binding in ELISA relative to parental Fab” value does the source give for B7 here?
Its value is 0.6 relative to parental Fab.

Which “binding in ELISA relative to parental Fab” value does the source give for B8 here?
Its value is 4.7 relative to parental Fab.

For B9, which “binding in ELISA relative to parental Fab” value is on record?
Its value is 1.1 relative to parental Fab.

B10 was tested. Which “binding in ELISA relative to parental Fab” value did it give?
Its value is 2.4 relative to parental Fab.

For B11, which “binding in ELISA relative to parental Fab” value is on record?
Its value is 0.4 relative to parental Fab.

With B12 as the binder, how does the “binding in ELISA relative to parental Fab” value read?
Its value is 1.8 relative to parental Fab.

target: T4, native human glycophorin A protein (human, UniProt P02724 20-150); experiment: ELISA, Fab on coated native human GPA
T4 construct: mature; also called Hu-nat GPA
T4 sequence (looked up): T1 sequence (looked up)

Which “binding in ELISA relative to parental Fab” value does the source give for B1 here?
The value was 1.6 relative to parental Fab.

B2 was tested. Which “binding in ELISA relative to parental Fab” value did it give?
The value was 0.9 relative to parental Fab.

With B3 as the binder, how does the “binding in ELISA relative to parental Fab” value read?
The value was 5.1 relative to parental Fab.

Which “binding in ELISA relative to parental Fab” value does the source give for B4 here?
The value was 1 relative to parental Fab.

How did the “binding in ELISA relative to parental Fab” value turn out when B5 was run?
Its value is 5.6 relative to parental Fab.

For B6, which “binding in ELISA relative to parental Fab” value is on record?
The value was 4.6 relative to parental Fab.

For B7, which “binding in ELISA relative to parental Fab” value is on record?
The value was 0.7 relative to parental Fab.

With B8 as the binder, how does the “binding in ELISA relative to parental Fab” value read?
The value was 5.9 relative to parental Fab.

Which “binding in ELISA relative to parental Fab” value does the source give for B9 here?
The value was 0.8 relative to parental Fab.

How did the “binding in ELISA relative to parental Fab” value turn out when B10 was run?
Its value is 2.5 relative to parental Fab.

For B11, which “binding in ELISA relative to parental Fab” value is on record?
The value was 0.5 relative to parental Fab.

How did the “binding in ELISA relative to parental Fab” value turn out when B12 was run?
The value was 1.8 relative to parental Fab.

target: T1, human glycophorin A on human red blood …; experiment: SPR (Biacore), Fab over human RBC membranes, 1:1 fit;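 note: human RBC membrane preparations captured on an L1 sensor surface, with antibody passed over them as analyte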
Procedure: Kinetic analysis of the antibody binding to human red blood cell membranes was also performed using surface plasmon resonance (SPR) using a Biacore instrument. In this assay membranes prepared from human red blood cells were attached to a L1 sensor matrix and antibodies were flowed over the RBC membranes.

What does the source list for B3?
Kd: 3.6 nM; koff: 0.0042 s⁻¹; kon: 1.2e+06 M⁻¹ s⁻¹

B5 was tested. Which Kd did it give?
Its Kd is 3.1 nM.

What about the koff of the same binder?
The koff was 0.004 s⁻¹.

And the kon?
Its kon is 1.3e+06 M⁻¹ s⁻¹.

B8 was tested. Which Kd did it give?
The Kd was 3.9 nM.

What about the koff of the same binder?
Its koff is 0.0059 s⁻¹.

What about the kon of the same binder?
The kon was 1.5e+06 M⁻¹ s⁻¹.

For B9, which Kd is on record?
Its Kd is 87 nM.

What about the koff of the same binder?
Its koff is 0.036 s⁻¹.

And the kon?
The kon was 420000 M⁻¹ s⁻¹.
